The values that follow come from PMC3507203 (Biology Open, 2011).

The target in this experiment is T1, GST-tagged KLHL18 (human, UniProt O94889 1-574).
T1 sequence (looked up): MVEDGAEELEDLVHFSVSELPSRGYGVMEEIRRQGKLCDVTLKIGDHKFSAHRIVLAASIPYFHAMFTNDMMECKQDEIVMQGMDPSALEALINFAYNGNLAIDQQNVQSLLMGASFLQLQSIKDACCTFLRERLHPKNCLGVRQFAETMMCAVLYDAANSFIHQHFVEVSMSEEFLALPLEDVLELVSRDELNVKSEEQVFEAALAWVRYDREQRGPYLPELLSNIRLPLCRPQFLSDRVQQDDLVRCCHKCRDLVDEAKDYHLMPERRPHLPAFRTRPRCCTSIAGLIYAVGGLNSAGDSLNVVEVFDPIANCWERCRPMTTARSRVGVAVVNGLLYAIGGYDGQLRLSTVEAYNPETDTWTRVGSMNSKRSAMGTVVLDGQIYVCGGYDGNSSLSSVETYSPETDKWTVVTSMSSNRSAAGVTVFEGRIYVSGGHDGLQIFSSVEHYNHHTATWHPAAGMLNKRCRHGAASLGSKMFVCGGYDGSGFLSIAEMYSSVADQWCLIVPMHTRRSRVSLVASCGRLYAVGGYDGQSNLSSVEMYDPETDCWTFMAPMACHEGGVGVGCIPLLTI
Put plainly: pull-down.

B1: histidine-tagged Aurora-A (natural protein, human, UniProt O14965 1-403, looked up)
chain: MDRSKENCISGPVKATAPVGGPKRVLVTQQFPCQNPLPVNSGQAQRVLCPSNSSQRIPLQAQKLVSSHKPVQNQKQKQLQATSVPHPVSRPLNNTQKSKQPLPSAPENNPEEELASKQKNEESKKRQWALEDFEIGRPLGKGKFGNVYLAREKQSKFILALKVLFKAQLEKAGVEHQLRREVEIQSHLRHPNILRLYGYFHDATRVYLILEYAPLGTVYRELQKLSKFDEQRTATYITELANALSYCHSKRVIHRDIKPENLLLGSAGELKIADFGWSVHAPSSRRTTLCGTLDYLPPEMIEGRMHDEKVDLWSLGVLCYEFLVGKPPFEANTYQETYKRISRVEFTFPDFVTEGARDLISRLLKHNPSQRPMLREVLEHPWITANSSKPSNCQNKESASKQS
As for B1, the binding result is listed as “binds”.
